Values quoted from earlier work, collected in article PMC10359924.
Where two headings read alike, the source gives them in different places. Blank lines part the entries; values can stand above or below the substance they belong to.

Tests used:
IL-4Rα (Homo sapiens) [1] = target: IL-4Rα (Homo sapiens) (UniProt P24394)
IL-13Rα1 (Homo sapiens) [2] = target: IL-13Rα1 (Homo sapiens) (UniProt P78552)
IL-4Rα (Homo sapiens) [3] = target: IL-4Rα (Homo sapiens) (UniProt P24394); remark: listed apart in the source
IL-13Rα1 (Homo sapiens) [4] = target: IL-13Rα1 (Homo sapiens) (UniProt P78552); remark: listed apart in the source
γc (Homo sapiens) = γc (Homo sapiens) (UniProt P31785)
Chain of γc (Homo sapiens) (P31785 23-262): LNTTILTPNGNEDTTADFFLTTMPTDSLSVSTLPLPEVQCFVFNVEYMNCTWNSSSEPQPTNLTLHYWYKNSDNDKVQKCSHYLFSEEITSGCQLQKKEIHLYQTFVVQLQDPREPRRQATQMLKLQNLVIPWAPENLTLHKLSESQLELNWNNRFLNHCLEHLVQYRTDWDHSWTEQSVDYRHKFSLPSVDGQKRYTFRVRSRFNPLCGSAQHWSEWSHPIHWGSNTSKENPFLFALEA

Chain of IL-4/IL-4Rα complex (P05112 25-153): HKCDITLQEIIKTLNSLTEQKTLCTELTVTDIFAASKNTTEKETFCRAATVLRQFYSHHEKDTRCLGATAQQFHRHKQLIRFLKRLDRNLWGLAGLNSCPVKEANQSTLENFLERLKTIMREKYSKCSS
Chain of IL-4/IL-4Rα complex (P24394 26-232, further chain): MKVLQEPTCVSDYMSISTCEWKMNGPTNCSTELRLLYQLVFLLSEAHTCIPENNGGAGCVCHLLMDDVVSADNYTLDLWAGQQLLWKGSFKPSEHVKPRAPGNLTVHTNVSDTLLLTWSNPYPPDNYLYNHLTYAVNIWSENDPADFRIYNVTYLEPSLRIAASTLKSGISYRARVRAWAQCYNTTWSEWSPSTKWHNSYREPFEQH
Chain of IL-13Rα1 (Homo sapiens) (P78552 22-343): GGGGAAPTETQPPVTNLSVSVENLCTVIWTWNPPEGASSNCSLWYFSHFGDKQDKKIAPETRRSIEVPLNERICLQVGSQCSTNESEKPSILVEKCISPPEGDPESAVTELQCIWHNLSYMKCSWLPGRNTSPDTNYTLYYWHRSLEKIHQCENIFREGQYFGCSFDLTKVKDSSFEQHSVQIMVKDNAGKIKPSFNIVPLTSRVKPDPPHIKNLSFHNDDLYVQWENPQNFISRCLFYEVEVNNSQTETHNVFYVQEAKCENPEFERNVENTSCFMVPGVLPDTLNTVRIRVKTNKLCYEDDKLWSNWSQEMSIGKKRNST
Chain of IL-4Rα (Homo sapiens) (P24394 26-232): as the sequence (P24394 26-232, further chain) above
Chain of IL-4 (P05112 25-153): as the sequence (P05112 25-153) above
Chain of IL-13 (P35225 25-146): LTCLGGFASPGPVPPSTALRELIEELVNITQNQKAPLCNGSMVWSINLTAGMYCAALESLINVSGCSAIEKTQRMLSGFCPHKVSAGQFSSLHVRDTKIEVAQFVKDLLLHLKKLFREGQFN
Chain of IL-13/IL-13Rα1 complex (P35225 25-146): as above
Chain of IL-13/IL-13Rα1 complex (P78552 22-343, further chain): as the sequence (P78552 22-343) above

Kd (IL-4Rα (Homo sapiens) [1]): 20 nM
Substance: IL-13/IL-13Rα1 complex (from UniProt P35225)

Kd (IL-13Rα1 (Homo sapiens) [2]): 30 nM
Substance: IL-13 (from UniProt P35225)

Kd (IL-4Rα (Homo sapiens) [3]): 1 nM
Substance: IL-4 (from UniProt P05112)

Kd (IL-13Rα1 (Homo sapiens) [4]): 487 nM
Kd (γc (Homo sapiens)): 559 nM
Substance: IL-4/IL-4Rα complex (from UniProt P05112)
